Key:
[1] = Circular dichroism, % helix in human insulin on storage at 4° C.; format: physicochemical
Procedure: From these CD spectra we have calculated the % of helix in human insulin overtime of storage at 4° C. on 12-day period. […] The CD spectra were taken […].
The CD analysis was carried out after storing the PAEC for 1, 6 or 12 days at 4° C.

[2] = Ultrafiltration of PAEC; particle recovery by light scattering, free SDS by HPLC-ELSD; format: physicochemical; settings: filtrate fraction of ultrafiltration
Procedure: The fraction of SDS under a free form, i.e. not associated to the PAECs, was determined on the following composition: P24/CpG/SDS/DA002: 200/80/200/350 μg/mL. This analysis was done after separation of the PAECs from free SDS, using ultrafiltration. The free SDS concentration in the permeate fraction was then determined by HPLC using an AZorbax 80A Extend-C18 column. 3.0×150 mm, 3.5 μm from Agilent and an Evaporative Light Scattering Detector (ELSD) Alltech® Model 3300.
Particle recovery has been estimated from the mean light scattering of the permeate fraction of ultrafiltration. The particle recovery percentage was measured as the mean and SD of light scattering count rate of 3 measurements; the SDS recovery percentage was measured as mean and SD of 2 HPLC analysis.

Molecule	percentage helix content in human insulin, Day 1 ([1]; stored 1 day at 4° C.)	percentage helix content in human insulin, Day 6 ([1]; stored 6 days at 4° C.)	percentage helix content in human insulin, Day 12 ([1]; stored 12 days at 4° C.)	SDS recovery (wt %) ([2]; 2 HPLC analysis)	Particle recovery (Id %) ([2]; mean and SD of 3 measurements)
Human Insulin: free human insulin, small globular protein, Mw 5808 Da	14.6%	37.4%	36.9%	–	–
CCCCCCCCCCCCOS(=O)(=O)[O-].[Na+] [Free SDS, sodium dodecyl sulphate]	–	–	–	100.0 wt %	0.78 ± 0.07 Id %

— patent US20230310621A1, “COMPLEXES FOR THE DELIVERY OF PROTEINACEOUS AGENTS” (priority 2020, published 2023)
